{"source": "paper PMC6088136", "molecular_target": "GluA2 AMPAR (expressed in HEK293T) (UniProt P23819)", "sequence (P23819 25-883)": "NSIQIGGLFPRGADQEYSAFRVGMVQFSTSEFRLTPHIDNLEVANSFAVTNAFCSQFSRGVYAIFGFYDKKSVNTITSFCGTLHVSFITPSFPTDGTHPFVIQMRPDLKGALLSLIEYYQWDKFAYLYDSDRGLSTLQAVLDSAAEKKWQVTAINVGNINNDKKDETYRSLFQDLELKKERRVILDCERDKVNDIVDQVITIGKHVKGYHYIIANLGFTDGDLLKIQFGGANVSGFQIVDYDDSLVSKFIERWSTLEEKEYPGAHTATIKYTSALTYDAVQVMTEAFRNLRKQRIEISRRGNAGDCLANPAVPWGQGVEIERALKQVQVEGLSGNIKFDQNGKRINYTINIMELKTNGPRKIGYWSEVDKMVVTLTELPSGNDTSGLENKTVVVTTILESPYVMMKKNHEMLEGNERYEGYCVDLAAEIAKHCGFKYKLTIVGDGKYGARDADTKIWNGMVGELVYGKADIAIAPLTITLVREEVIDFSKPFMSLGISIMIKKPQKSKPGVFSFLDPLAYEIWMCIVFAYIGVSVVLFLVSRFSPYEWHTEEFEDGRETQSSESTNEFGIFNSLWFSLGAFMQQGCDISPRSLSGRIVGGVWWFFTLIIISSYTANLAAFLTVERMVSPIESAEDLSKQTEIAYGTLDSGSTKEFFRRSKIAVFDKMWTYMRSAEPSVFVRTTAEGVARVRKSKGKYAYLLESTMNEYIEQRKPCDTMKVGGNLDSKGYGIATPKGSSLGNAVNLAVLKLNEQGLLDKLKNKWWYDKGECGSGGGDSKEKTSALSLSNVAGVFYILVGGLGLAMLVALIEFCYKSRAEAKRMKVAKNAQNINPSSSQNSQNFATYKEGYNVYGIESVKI", "assay": "SPR"}
{"substance": "Noelin1-3 (untagged, expressed in HEK293T) (natural protein)", "values": [{"measurement": "Kd", "value": 1, "unit": "nM"}, {"measurement": "koff", "value": 0.002, "unit": "s⁻¹"}]}
